± gives the standard deviation of the averaged measurements.
system: Saccharomyces cerevisiae; assay: protein stability index of tFT-peptide fusion (C-terminal peptide) (PSI (0-1 scale)); higher = more stable (slower turnover); conditions: genetic background: wild type; temperature: 30 C
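Further: PSI is a weighted mean of sequencing reads over stability bins, variants kept only with over 10 reads, mCherry proximal and sfGFP distal, peptide attached via GGGS linker.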

Row | Sequence | protein stability index
1 | VGGWGGVGTCVW | 0.711 ± 0.047
2 | VGHGGCCGWGCG | 0.786 ± 0.1
3 | VGKQRISPSSPS | 0.664 ± 0.018
4 | VGKRGQRRVARL | 0.692 ± 0.021
5 | VGLFGLCRVFGM | 0.646 ± 0.023
6 | VGLFMGSPFMET | 0.693 ± 0.0087
7 | VGLFRESLFRRG | 0.714 ± 0.072
8 | VGLSVRFPVANH | 0.673 ± 0.037
9 | VGMGAWVQQIVL | 0.666 ± 0.043
10 | VGQCVWRVGRSS | 0.69 ± 0.044
11 | VGRGGGGWRLEG | 0.694 ± 0.078
12 | VGRGGGVWRLEG | 0.699 ± 0.045
13 | VGRGGVRRLLQT | 0.709 ± 0.037
14 | VGRIGNWRFGAG | 0.695 ± 0.0084
15 | VGRVGEGGGGRG | 0.679 ± 0.046
16 | VGRWCCELVWGV | 0.645 ± 0.022
17 | VGRWVLEARGVV | 0.715 ± 0.031
18 | VGSGKYGVVGVG | 0.518 ± 0.029
19 | VGSMRRYCRTKI | 0.792 ± 0.25
20 | VGSPLSVCLSSR | 0.702 ± 0.012
21 | VGSSRRGCSGAE | 0.685 ± 0.024
22 | VGVQLLLSAWEK | 0.715 ± 0.066
23 | VGVSGVCGDWAM | 0.67 ± 0.05

Row | Sequence | protein stability index
24 | VGVSWSMYCANW | 0.631 ± 0.11
25 | VGVVGGSWEVVG | 0.685 ± 0.031
26 | VGVWTGGDVDCH | 0.777 ± 0.086
27 | VGWLCVLGGAQR | 0.762 ± 0.045
28 | VGWRVAVGWGLG | 0.691 ± 0.083
29 | VHFISPACSPPT | 0.673 ± 0.058
30 | VHLYGRTAGRGV | 0.816 ± 0.06
31 | VHRYGGFRGEMS | 0.702 ± 0.08
32 | VHSGSVDVSSFS | 0.697 ± 0.018
33 | VHSSWRVAACGK | 0.698 ± 0.031
34 | VHVLLSGVICAL | 0.471 ± 0.061
35 | VIAEHCSKQGLI | 0.639 ± 0.018
36 | VIGGGRVLGIGG | 0.653 ± 0.1
37 | VIGGRQGVVRHR | 0.68 ± 0.025
38 | VIGIRNGADMSI | 0.667 ± 0.013
39 | VIPLSARGEEGD | 0.7001 ± 0.0035
40 | VIPTYESNDRQS | 0.652 ± 0.064
41 | VIQVRDLRLFSR | 0.734 ± 0.028
42 | VIRPMTVYSVVS | 0.515 ± 0.029
43 | VIRSLPSSALPL | 0.662 ± 0.08
44 | VITYKKKNTRKQ | 0.673 ± 0.093
45 | VKIYSSPFFCLI | 0.57 ± 0.011
46 | VKLSVITGCRVT | 0.659 ± 0.092

Row | Sequence | protein stability index
47 | VKSSIGWLKVGF | 0.671 ± 0.15
48 | VKSSSCSVLRSL | 0.7 ± 0.038
49 | VKTETNTDGKKR | 0.67 ± 0.15
50 | VKVAFSIASRVD | 0.79 ± 0.0028
51 | VLAGFVLNDWVP | 0.731 ± 0.023
52 | VLCRPLLPTSRL | 0.772 ± 0.02
53 | VLDRGGAGAVCV | 0.649 ± 0.024
54 | VLFATLHVMALK | 0.55 ± 0.026
55 | VLFDGSWSGSYL | 0.741 ± 0.15
56 | VLGFGGVVLFFL | 0.642 ± 0.06
57 | VLGGGLGVLTWV | 0.753 ± 0.018
58 | VLGGSGFAGSPS | 0.659 ± 0.014
59 | VLGLGSGGVCGG | 0.693 ± 0.023
60 | VLGRLRGGRDRV | 0.723 ± 0.023
61 | VLGSVGGFVQRD | 0.677 ± 0.036
62 | VLGVFFGSVEGC | 0.68 ± 0.05
63 | VLLFALSPHPPS | 0.724 ± 0.024
64 | VLLPRIRPSYSL | 0.674 ± 0.045
65 | VLLRLVGLCQYL | 0.50067 ± 0.0004
66 | VLLSFLHLTASS | 0.606 ± 0.03
67 | VLPGCFSISAPP | 0.7038 ± 0.0062
68 | VLPLFSSFSRSP | 0.674 ± 0.058
69 | VLPPPPTRPLLP | 0.743 ± 0.019

Row | Sequence | protein stability index
70 | VLPRVLADVRST | 0.685 ± 0.03
71 | VLPTHCPPPSSR | 0.715 ± 0.017
72 | VLRGMSVFGLGE | 0.74 ± 0.14
73 | VLRGVNGLRCRS | 0.6863 ± 0.0046
74 | VLRIIMQCVFVR | 0.549 ± 0.0064
75 | VLRLGFYNINKL | 0.676 ± 0.075
76 | VLRVSRHLKAVK | 0.65 ± 0.024
77 | VLSFALGSAGGR | 0.678 ± 0.069
78 | VLSLCLSVRSFV | 0.562 ± 0.017
79 | VLSLHPRRATLL | 0.615 ± 0.03
80 | VLSVETGTSGLF | 0.655 ± 0.01
81 | VLTPLWIANTFL | 0.673 ± 0.057
82 | VLVAWWGLGGGV | 0.637 ± 0.069
83 | VLWLGSFKSPRR | 0.727 ± 0.022
84 | VMGAGGRTVAEW | 0.719 ± 0.019
85 | VMGIGAAVRRVR | 0.713 ± 0.02
86 | VMVGRVLEKGVV | 0.654 ± 0.069
87 | VMVMELHGYPVV | 0.655 ± 0.044
88 | VMVVVGLQGTMV | 0.5962 ± 0.0032
89 | VNCAYCRERKRD | 0.7209 ± 0.0031
90 | VPCCSAVDLLVS | 0.5999 ± 0.0045
91 | VPCYSSACHGDA | 0.669 ± 0.1
92 | VPFYHIFPPFRP | 0.777 ± 0.088

Row | Sequence | protein stability index
93 | VPFYSPPCYSCL | 0.628 ± 0.04
94 | VPLRVSLGCDAF | 0.67 ± 0.04
95 | VPPASLVCLTSP | 0.667 ± 0.0015
96 | VPPNTLTAPHLF | 0.844 ± 0.046
97 | VPPPSPTLSPHP | 0.656 ± 0.28
98 | VPPPTAPVPPRP | 0.749 ± 0.096
99 | VPRPPPHPPGDV | 0.622 ± 0.016
100 | VPRTFQDLLPAP | 0.707 ± 0.04
101 | VPSLFLYGNPMY | 0.71 ± 0.036
102 | VPSLPSPCSSCA | 0.667 ± 0.046
103 | VPSRTVTGTLPA | 0.681 ± 0.026
104 | VPSVCPFLSVLL | 0.647 ± 0.035
105 | VPSVGFSVHLLP | 0.692 ± 0.021
106 | VPVAAVGGGECG | 0.575 ± 0.044
107 | VPWGGLRFRDWW | 0.659 ± 0.099
108 | VPYGKILQQGDI | 0.658 ± 0.048
109 | VQEEGYYLHSSL | 0.699 ± 0.021
110 | VQLGLGPDSSRS | 0.694 ± 0.019
111 | VQSGIRLIFGRA | 0.545 ± 0.014
112 | VQVSGFPHSRTR | 0.691 ± 0.023
113 | VQYGHIVKGWCS | 0.697 ± 0.013
114 | VRAAAFCFVRFR | 0.55 ± 0.021
115 | VRAEVSNVDYVS | 0.658 ± 0.0096

Row | Sequence | protein stability index
116 | VRALCRYRTVNG | 0.685 ± 0.035
117 | VRAVFPRSGLSC | 0.696 ± 0.048
118 | VRCRLLDVGDAS | 0.642 ± 0.026
119 | VRCSAASLKVRK | 0.675 ± 0.01
120 | VRDRTSRGMRPA | 0.6945 ± 0.0043
121 | VRDTTRTEKLGP | 0.687 ± 0.002
122 | VREGKDREVSGF | 0.715 ± 0.031
123 | VREKNHTLQMET | 0.646 ± 0.017
124 | VRGGGRRACVVG | 0.607 ± 0.05
125 | VRGGLVGRSVGC | 0.559 ± 0.08
126 | VRGKGWRVGWWG | 0.668 ± 0.045
127 | VRGRQGGGVGRA | 0.682 ± 0.1
128 | VRHLGAIPQLSG | 0.637 ± 0.095
129 | VRHSLFPCPSPT | 0.714 ± 0.035
130 | VRHSPVVPANRP | 0.698 ± 0.094
131 | VRIRRNGAVSFM | 0.6829 ± 0.0038
132 | VRITRPFKAPTP | 0.711 ± 0.0056
133 | VRLWLSLRLGFS | 0.587 ± 0.068
134 | VRNASEDSVGQL | 0.708 ± 0.046
135 | VRNESGGRAAAS | 0.6988 ± 0.0016
136 | VRQLRGPWMEYP | 0.682 ± 0.076
137 | VRRGAAGDDWGW | 0.869 ± 0.057
138 | VRRGCGVGACPG | 0.618 ± 0.017

Row | Sequence | protein stability index
139 | VRRILLGPPGRD | 0.653 ± 0.085
140 | VRRMLSSLIEGH | 0.619 ± 0.0072
141 | VRRSHSGSNDVP | 0.673 ± 0.14
142 | VRSCCFFLDAVW | 0.665 ± 0.029
143 | VRSCFPVGMVWR | 0.72087 ± 0.00045
144 | VRSLSSPPAPAT | 0.736 ± 0.038
145 | VRSPLEHTVPFS | 0.655 ± 0.057
146 | VRSRRQLPPADP | 0.723 ± 0.083
147 | VRSYLARFEVYV | 0.531 ± 0.019
148 | VRTSWRHESIKK | 0.618 ± 0.019
149 | VRVRPAVRSGPE | 0.616 ± 0.006
150 | VSCFVWFGFSCI | 0.5202 ± 0.0034
151 | VSCPGWVVHVIV | 0.48 ± 0.079
152 | VSDLFWAELIGN | 0.71 ± 5.7e-06
153 | VSGGRQGGWGGW | 0.691 ± 0.034
154 | VSGWDCEGDWVA | 0.76 ± 0.0096
155 | VSLGHCGFYSRV | 0.648 ± 0.039
156 | VSLLSSDTRSAY | 0.753 ± 0.07
157 | VSLPTAPFPLPS | 0.844 ± 0.084
158 | VSLVYLDHLSRS | 0.702 ± 0.029
159 | VSPLVRVFSCAI | 0.598 ± 0.033
160 | VSQKQALVCPRI | 0.705 ± 0.085

From the supplement of paper PMC10724198
